Assay results reported in the supplement of paper PMC10567573.

B1: RSPH3 (parent)
chain: QRLEEQERRHREEKERRKKQQWEI

Variants of: B1
Assay: protein stability index of a GFP-peptide fusion (GPS, HEK-293T) (PSI 1-6); higher = more stable
Conditions: c terminus: a fixed tail appended
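Further: lentivirally expressed fusions sorted by FACS into six bins by GFP to DsRed ratio, PSI derived from sequencing read proportions per bin multiplied by bin number.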

Which protein stability index does the source give for QRLEEQERRHREEKEMRKKQQWEI [R16M] here?
The protein stability index was 5.04.

With QRLEEQERRHREEKECRKKQQWEI [R16C] as the variant, how does the protein stability index read?
The protein stability index was 5.12.

For QRLEEQERRHREEKEKRKKQQWEI [R16K], which protein stability index is on record?
Its protein stability index is 4.57.

Which protein stability index does the source give for QRLEEQERRHREEKEHRKKQQWEI [R16H] here?
Its protein stability index is 4.77.

Which protein stability index does the source give for QRLEEQERRHREEKEDRKKQQWEI [R16D] here?
Its protein stability index is 5.37.

For QRLEEQERRHREEKEERKKQQWEI [R16E], which protein stability index is on record?
The protein stability index was 5.23.

Which protein stability index does the source give for QRLEEQERRHREEKEGRKKQQWEI [R16G] here?
The protein stability index was 4.84.

Which protein stability index does the source give for QRLEEQERRHREEKENRKKQQWEI [R16N] here?
Its protein stability index is 4.82.

With QRLEEQERRHREEKEARKKQQWEI [R16A] as the variant, how does the protein stability index read?
Its protein stability index is 4.5.

With QRLEEQERRHREEKELRKKQQWEI [R16L] as the variant, how does the protein stability index read?
Its protein stability index is 4.67.

Which protein stability index does the source give for QRLEEQERRHREEKDRRKKQQWEI [E15D] here?
The protein stability index was 4.68.

With QRLEEQERRHREEKSRRKKQQWEI [E15S] as the variant, how does the protein stability index read?
The protein stability index was 4.58.

Which protein stability index does the source give for QRLEEQERRHREEKNRRKKQQWEI [E15N] here?
The protein stability index was 5.12.

Which protein stability index does the source give for QRLEEQERRHREEKARRKKQQWEI [E15A] here?
Its protein stability index is 4.44.

Which protein stability index does the source give for QRLEEQERRHREEKKRRKKQQWEI [E15K] here?
Its protein stability index is 4.74.

For QRLEEQERRHREEKLRRKKQQWEI [E15L], which protein stability index is on record?
The protein stability index was 4.63.

Which protein stability index does the source give for QRLEEQERRHREEKWRRKKQQWEI [E15W] here?
Its protein stability index is 3.18.

With QRLEEQERRHREEKCRRKKQQWEI [E15C] as the variant, how does the protein stability index read?
Its protein stability index is 3.74.

For QRLEEQERRHREEKGRRKKQQWEI [E15G], which protein stability index is on record?
Its protein stability index is 4.36.

For QRLEEQERRHREEKRRRKKQQWEI [E15R], which protein stability index is on record?
The protein stability index was 3.75.

With QRLEEQERRHREEKVRRKKQQWEI [E15V] as the variant, how does the protein stability index read?
Its protein stability index is 4.14.

With QRLEEQERRHREEKIRRKKQQWEI [E15I] as the variant, how does the protein stability index read?
Its protein stability index is 4.09.

For QRLEEQERRHREEKHRRKKQQWEI [E15H], which protein stability index is on record?
The protein stability index was 3.91.

With QRLEEQERRHREEKMRRKKQQWEI [E15M] as the variant, how does the protein stability index read?
The protein stability index was 4.02.

Which protein stability index does the source give for QRLEEQERRHREEKPRRKKQQWEI [E15P] here?
The protein stability index was 3.62.

For QRLEEQERRHREEKQRRKKQQWEI [E15Q], which protein stability index is on record?
The protein stability index was 4.85.

With QRLEEQERRHREEKYRRKKQQWEI [E15Y] as the variant, how does the protein stability index read?
Its protein stability index is 3.09.

With QRLEEQERRHREEKFRRKKQQWEI [E15F] as the variant, how does the protein stability index read?
Its protein stability index is 3.92.

With QRLEEQERRHREEKTRRKKQQWEI [E15T] as the variant, how does the protein stability index read?
The protein stability index was 4.7.

With QRLEEWERRHREEKERRKKQQWEI [Q6W] as the variant, how does the protein stability index read?
The protein stability index was 4.18.

For QRLEETERRHREEKERRKKQQWEI [Q6T], which protein stability index is on record?
The protein stability index was 4.81.

For QRLEERERRHREEKERRKKQQWEI [Q6R], which protein stability index is on record?
Its protein stability index is 4.42.

Which protein stability index does the source give for QRLEENERRHREEKERRKKQQWEI [Q6N] here?
Its protein stability index is 4.4.

For QRLEEYERRHREEKERRKKQQWEI [Q6Y], which protein stability index is on record?
Its protein stability index is 4.48.

For QRLEEPERRHREEKERRKKQQWEI [Q6P], which protein stability index is on record?
Its protein stability index is 4.47.

Which protein stability index does the source give for QRLEESERRHREEKERRKKQQWEI [Q6S] here?
The protein stability index was 4.82.

With QRLEEVERRHREEKERRKKQQWEI [Q6V] as the variant, how does the protein stability index read?
Its protein stability index is 4.85.

For QRLEEQERRHREECERRKKQQWEI [K14C], which protein stability index is on record?
The protein stability index was 4.63.

Which protein stability index does the source give for QRLEEQERRHREEQERRKKQQWEI [K14Q] here?
The protein stability index was 4.26.

With QRLEEQERRHREEEERRKKQQWEI [K14E] as the variant, how does the protein stability index read?
Its protein stability index is 5.13.

With QRLEEQERRHREEAERRKKQQWEI [K14A] as the variant, how does the protein stability index read?
Its protein stability index is 4.83.

Which protein stability index does the source give for QRLEEQERRHREEDERRKKQQWEI [K14D] here?
The protein stability index was 4.65.

For QRLEEQERRHREEYERRKKQQWEI [K14Y], which protein stability index is on record?
The protein stability index was 4.34.

Which protein stability index does the source give for QRLEEQERRHREESERRKKQQWEI [K14S] here?
Its protein stability index is 3.26.

For QRLEEQERRHREENERRKKQQWEI [K14N], which protein stability index is on record?
The protein stability index was 4.87.

Which protein stability index does the source give for QRLEEQERRHREEMERRKKQQWEI [K14M] here?
Its protein stability index is 4.25.

For QRLEEQERRHREEIERRKKQQWEI [K14I], which protein stability index is on record?
Its protein stability index is 3.76.

For QRLEEQERRHREEPERRKKQQWEI [K14P], which protein stability index is on record?
Its protein stability index is 4.55.

For QRLEEQERRHREEHERRKKQQWEI [K14H], which protein stability index is on record?
Its protein stability index is 4.73.

Which protein stability index does the source give for QRLEEQERRHREETERRKKQQWEI [K14T] here?
The protein stability index was 4.08.

For QRLEEQERRHREEVERRKKQQWEI [K14V], which protein stability index is on record?
Its protein stability index is 4.72.

With QRLEEQERRHREERERRKKQQWEI [K14R] as the variant, how does the protein stability index read?
The protein stability index was 4.15.

For QRLEEQERRHREEGERRKKQQWEI [K14G], which protein stability index is on record?
Its protein stability index is 5.25.

Which protein stability index does the source give for QRLEEQERRHREEWERRKKQQWEI [K14W] here?
Its protein stability index is 4.45.

Which protein stability index does the source give for QRLEEQERRHREEFERRKKQQWEI [K14F] here?
The protein stability index was 4.69.

For QRLEEQERRHREELERRKKQQWEI [K14L], which protein stability index is on record?
Its protein stability index is 3.94.

With QRLEEQERRHWEEKERRKKQQWEI [R11W] as the variant, how does the protein stability index read?
The protein stability index was 4.44.

For QRLEEQERRHFEEKERRKKQQWEI [R11F], which protein stability index is on record?
The protein stability index was 4.64.

Which protein stability index does the source give for QRLEEQERRHAEEKERRKKQQWEI [R11A] here?
Its protein stability index is 4.91.

For QRLEEQERRHMEEKERRKKQQWEI [R11M], which protein stability index is on record?
The protein stability index was 4.6.

Which protein stability index does the source give for QRLEEQERRHKEEKERRKKQQWEI [R11K] here?
Its protein stability index is 4.23.

Which protein stability index does the source give for QRLEEQERRHGEEKERRKKQQWEI [R11G] here?
Its protein stability index is 5.08.

With QRLEEQERRHIEEKERRKKQQWEI [R11I] as the variant, how does the protein stability index read?
The protein stability index was 4.22.

For QRLEEQERRHEEEKERRKKQQWEI [R11E], which protein stability index is on record?
Its protein stability index is 5.19.

For QRLEEQERRHHEEKERRKKQQWEI [R11H], which protein stability index is on record?
The protein stability index was 4.51.

With QRLEEQERRHCEEKERRKKQQWEI [R11C] as the variant, how does the protein stability index read?
The protein stability index was 4.83.

Which protein stability index does the source give for QRLEEQERRHSEEKERRKKQQWEI [R11S] here?
Its protein stability index is 4.35.

With QRLEEQERRHYEEKERRKKQQWEI [R11Y] as the variant, how does the protein stability index read?
The protein stability index was 4.68.

Which protein stability index does the source give for QRLEEQERRHPEEKERRKKQQWEI [R11P] here?
Its protein stability index is 5.34.

Which protein stability index does the source give for QRLEEQERRHDEEKERRKKQQWEI [R11D] here?
The protein stability index was 4.93.

With QRLEEQERRHLEEKERRKKQQWEI [R11L] as the variant, how does the protein stability index read?
The protein stability index was 4.25.

Which protein stability index does the source give for QRLEEQERRHVEEKERRKKQQWEI [R11V] here?
The protein stability index was 4.24.

Which protein stability index does the source give for QRLEEQERRHQEEKERRKKQQWEI [R11Q] here?
Its protein stability index is 4.67.

Which protein stability index does the source give for QRLEEQERRHNEEKERRKKQQWEI [R11N] here?
The protein stability index was 5.19.

Which protein stability index does the source give for QRLEEQERRHTEEKERRKKQQWEI [R11T] here?
The protein stability index was 4.62.

With QRLEEQEWRHREEKERRKKQQWEI [R8W] as the variant, how does the protein stability index read?
Its protein stability index is 4.09.

Which protein stability index does the source give for QRLEEQETRHREEKERRKKQQWEI [R8T] here?
The protein stability index was 4.97.

With QRLEEQEVRHREEKERRKKQQWEI [R8V] as the variant, how does the protein stability index read?
Its protein stability index is 5.02.

For QRLEEQEKRHREEKERRKKQQWEI [R8K], which protein stability index is on record?
The protein stability index was 4.33.

Which protein stability index does the source give for QRLEEQEIRHREEKERRKKQQWEI [R8I] here?
The protein stability index was 4.42.

Which protein stability index does the source give for QRLEEQEGRHREEKERRKKQQWEI [R8G] here?
Its protein stability index is 5.02.

Which protein stability index does the source give for QRLEEQEYRHREEKERRKKQQWEI [R8Y] here?
Its protein stability index is 4.24.

With QRLEEQEHRHREEKERRKKQQWEI [R8H] as the variant, how does the protein stability index read?
Its protein stability index is 4.57.

For QRLEEQEPRHREEKERRKKQQWEI [R8P], which protein stability index is on record?
The protein stability index was 5.03.

With QRLEEQEARHREEKERRKKQQWEI [R8A] as the variant, how does the protein stability index read?
Its protein stability index is 4.86.

For QRLEEQEQRHREEKERRKKQQWEI [R8Q], which protein stability index is on record?
Its protein stability index is 4.61.

With QRLEEQEERHREEKERRKKQQWEI [R8E] as the variant, how does the protein stability index read?
The protein stability index was 4.95.

With QRLEEQEDRHREEKERRKKQQWEI [R8D] as the variant, how does the protein stability index read?
Its protein stability index is 4.79.

With QRLEEQEMRHREEKERRKKQQWEI [R8M] as the variant, how does the protein stability index read?
Its protein stability index is 3.7.

With QRLEEQECRHREEKERRKKQQWEI [R8C] as the variant, how does the protein stability index read?
Its protein stability index is 3.71.

For QRLEEQEFRHREEKERRKKQQWEI [R8F], which protein stability index is on record?
The protein stability index was 4.28.

With QRLEEQENRHREEKERRKKQQWEI [R8N] as the variant, how does the protein stability index read?
The protein stability index was 3.93.

For QRLEEQELRHREEKERRKKQQWEI [R8L], which protein stability index is on record?
Its protein stability index is 3.69.

Which protein stability index does the source give for QRLEEQESRHREEKERRKKQQWEI [R8S] here?
The protein stability index was 4.64.
